According to publication doi:10.1101/2020.09.30.318972 (bioRxiv, 2020):

Biological target: soluble prefusion-stabilized trimeric SARS-CoV-2 spike protein (SARS-CoV-2, Wuhan-Hu-1 (MN908947.3), UniProt P0DTC2, stabilised)
Assay: cryo-EM structure

B1: LY-CoV555 Fab (Fab, V domains shown)
VH: QVQLVQSGAEVKKPGSSVKVSCKASGGTFSNYAISWVRQAPGQGLEWMGRIIPILGIANYAQKFQGRVTITADKSTSTAYMELSSLRSEDTAVYYCARGYYEARHYYYYYAMDVWGQGTAVTVSS
VL: not shown
Q: Does B1 bind?
A: binds
